Values belong to the molecule of their own block, whether it stands above or below them.
Key:
[1] = target: T1, human prolactin receptor (human, UniProt P16471 25-622); assay: cell-based or functional assay
T1 sequence (looked up): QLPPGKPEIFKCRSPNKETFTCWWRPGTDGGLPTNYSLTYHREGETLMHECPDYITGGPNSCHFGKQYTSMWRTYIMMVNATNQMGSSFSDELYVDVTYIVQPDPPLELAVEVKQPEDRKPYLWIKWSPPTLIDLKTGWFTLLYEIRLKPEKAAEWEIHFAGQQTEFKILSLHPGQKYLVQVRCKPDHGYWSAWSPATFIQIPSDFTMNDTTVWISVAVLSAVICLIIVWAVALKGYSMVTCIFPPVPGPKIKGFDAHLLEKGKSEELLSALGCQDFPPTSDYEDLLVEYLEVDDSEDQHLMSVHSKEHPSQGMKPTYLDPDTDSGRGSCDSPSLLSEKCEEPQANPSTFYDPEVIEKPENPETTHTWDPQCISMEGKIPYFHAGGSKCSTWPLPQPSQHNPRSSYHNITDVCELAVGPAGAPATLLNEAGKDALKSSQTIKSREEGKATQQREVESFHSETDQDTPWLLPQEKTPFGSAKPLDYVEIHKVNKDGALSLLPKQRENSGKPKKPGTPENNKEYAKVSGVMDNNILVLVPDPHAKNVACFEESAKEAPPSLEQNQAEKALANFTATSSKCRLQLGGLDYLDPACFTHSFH

[2] = target: T1, human prolactin receptor; assay: competition with [125I]-hPRL on HL5 cell homogenates (human PRLR); mean of three experiments
Description: (§1) The affinity of the various hPRL analogs for the human PRLR was estimated by their ability to compete [¹²⁵I]-hPRL for binding to this receptor. Binding affinities were determined using cell homogenates of HL5 cells (expressing the human PRLR), following the procedure previously described (KINET et al., J. Biol. Chem., 274, 26033-26043, 1999).
(§2) Briefly, hPRL was iodinated using IODOGEN, and its specific activity was in the range of 40-50 μCi/μg. Binding assays were performed overnight at room temperature using 150-300 μg cell homogenate protein in the presence of 30,000 cpm [¹²⁵I]-hPRL and increasing concentrations of unlabeled competitor (WT or mutated hPRL).
(§3) The relative binding affinity of hPRL analogs was calculated as the ratio of their IC₅₀ with respect to that of WT hPRL calculated from competition curves (regression in the linear part of sigmoids). Results presented in FIG. 2A are representative of at least three independent experiments performed in duplicate.

[3] = target: T1, human prolactin receptor; assay: competition with [125I]-hPRL on HL5 cell homogenates (human PRLR)
Description: as §1, §2, §3

[4] = target: human prolactin receptor (human) (UniProt P16471); assay: competition with [125I]-hPRL on HL5 cell homogenates (human PRLR); ratio of IC50 to that of WT hPRL
[5] = target: human prolactin receptor (human) (UniProt P16471); assay: cell-based or functional assay
[6] = target: T1, human prolactin receptor; assay: competition of unlabeled WT hPRL with [125I]-hPRL on HL5 cell homogenates (human PRLR); mean of three experiments
Description: as §1, §2, §3

Molecule: Δ1-10-hPRL (from UniProt P01236 11-199) (ligand)
LHRE-luciferase reporter in HL5 cells, EC50 against WT hPRL [5]: 2 fold
LHRE-luciferase reporter in HL5 cells, maximal response against WT hPRL [5]: 120 to 140%

B2: Δ1-12-hPRL (ligand, human)
chain: MVTLRDLFDRAVVLSHYIHNLSSEMFSEFDKRYTHGRGFITKAINSCHTSSLATPEDKEQAQQMNQKDFLSLIVSILRSWNEPLYHLVTEVRGMQEAPEAILSKAVEIEEQTKRLLEGMELIVSQVHPETKENEIYPVWSGLPSLQMADEESRLSAYYNLLHCLRRDSHKIDNYLKLLKCRIIHNNNC
LHRE-luciferase reporter in HL5 cells, EC50 against WT hPRL [1]: ~2 fold

B3: Δ1-14-hPRL (ligand, human)
chain: MLRDLFDRAVVLSHYIHNLSSEMFSEFDKRYTHGRGFITKAINSCHTSSLATPEDKEQAQQMNQKDFLSLIVSILRSWNEPLYHLVTEVRGMQEAPEAILSKAVEIEEQTKRLLEGMELIVSQVHPETKENEIYPVWSGLPSLQMADEESRLSAYYNLLHCLRRDSHKIDNYLKLLKCRIIHNNNC
LHRE-luciferase reporter in HL5 cells, EC50 against WT hPRL [1]: ~3 fold

B5: wild-type human prolactin (ligand, UniProt P01236 29-227, looked up)
chain: LPICPGGAARCQVTLRDLFDRAVVLSHYIHNLSSEMFSEFDKRYTHGRGFITKAINSCHTSSLATPEDKEQAQQMNQKDFLSLIVSILRSWNEPLYHLVTEVRGMQEAPEAILSKAVEIEEQTKRLLEGMELIVSQVHPETKENEIYPVWSGLPSLQMADEESRLSAYYNLLHCLRRDSHKIDNYLKLLKCRIIHNNNC
notes: mature; Monomeric fraction used; Residue numbers (Cys4, Cys11, Gly129) count on the mature hormone; also called WT hPRL; hPRL
IC50 [6]: 0.018 µg/mL

Second part, the molecule after the results:

Ba/F3-hPRLR cell proliferation, antagonism of 10 ng/ml WT hPRL, molar excess needed [1]: 10 to 50 fold
IC50 [2]: 0.166 µg/mL
fold lower affinity compared to WT hPRL [3]: 10 fold
Molecule: Δ1-9-G129R-hPRL (from UniProt P01236 10-199) (ligand)

increase in affinity compared to WT hPRL [4]: 20%
LHRE-luciferase reporter in HL5 cells, EC50 against WT hPRL [5]: 2 fold
LHRE-luciferase reporter in HL5 cells, maximal response against WT hPRL [5]: 120 to 140%
Molecule: Δ1-9-hPRL (from UniProt P01236 10-199) (ligand)

LHRE-luciferase reporter in HL5 cells, EC50 against WT hPRL [1]: ~2 fold
B1: Δ1-13-hPRL (ligand, human)
chain: MTLRDLFDRAVVLSHYIHNLSSEMFSEFDKRYTHGRGFITKAINSCHTSSLATPEDKEQAQQMNQKDFLSLIVSILRSWNEPLYHLVTEVRGMQEAPEAILSKAVEIEEQTKRLLEGMELIVSQVHPETKENEIYPVWSGLPSLQMADEESRLSAYYNLLHCLRRDSHKIDNYLKLLKCRIIHNNNC

IC50 [2]: 0.187 µg/mL
fold lower affinity compared to WT hPRL [3]: ~10 fold
B4: Δ1-14-G129R-hPRL (ligand, human)
chain: MLRDLFDRAVVLSHYIHNLSSEMFSEFDKRYTHGRGFITKAINSCHTSSLATPEDKEQAQQMNQKDFLSLIVSILRSWNEPLYHLVTEVRGMQEAPEAILSKAVEIEEQTKRLLERMELIVSQVHPETKENEIYPVWSGLPSLQMADEESRLSAYYNLLHCLRRDSHKIDNYLKLLKCRIIHNNNC
notes: range 15-199; Mature-hormone numbering; also called Δ1-14-G129R-PRL; double mutant Δ1-14-G129R-hPRL

fold lower affinity compared to WT hPRL [3]: ~10 fold
B6: G129R-hPRL (ligand, human, UniProt P01236 29-227, looked up)
chain: LPICPGGAARCQVTLRDLFDRAVVLSHYIHNLSSEMFSEFDKRYTHGRGFITKAINSCHTSSLATPEDKEQAQQMNQKDFLSLIVSILRSWNEPLYHLVTEVRGMQEAPEAILSKAVEIEEQTKRLLERMELIVSQVHPETKENEIYPVWSGLPSLQMADEESRLSAYYNLLHCLRRDSHKIDNYLKLLKCRIIHNNNC
notes: mature; also called single mutant G129R-hPRL

LHRE-luciferase reporter in HL5 cells, EC50 against WT hPRL [1]: ~2 fold
B7: Δ1-11-hPRL (ligand, human)
chain: MQVTLRDLFDRAVVLSHYIHNLSSEMFSEFDKRYTHGRGFITKAINSCHTSSLATPEDKEQAQQMNQKDFLSLIVSILRSWNEPLYHLVTEVRGMQEAPEAILSKAVEIEEQTKRLLEGMELIVSQVHPETKENEIYPVWSGLPSLQMADEESRLSAYYNLLHCLRRDSHKIDNYLKLLKCRIIHNNNC

— US20060277614A1 (INSTITUT NAT L DE LA SANTE ET DE LA RECH MED, published 2006)
